Source: patent publication US7211402B2, “Transcription factor coactivator protein, p/CIP” (The Regents of the University of California, priority 1997, dated 2007)
“Also recorded” adds a separate entry of the source.

Columns and labels:
liganded RAR and NCoA-1 = target: T1, liganded RAR and NCoA-1 (Homo sapiens, UniProt P10276); test: In vitro competition assay, GST-RAR interaction with in vitro translated NCoA-1; format: binding; conditions: excess peptide; 35S-labeled NCoA interaction domain fragment (aa 635–760); TTNPB 1 μM
T1 construct: GST-RAR (143–462), GST-ER(251–595) and GST-CBP(2058–2170) were generated as described; made in house; NCoA-1 was made by in vitro translation
T1 sequence (P10276 143-462): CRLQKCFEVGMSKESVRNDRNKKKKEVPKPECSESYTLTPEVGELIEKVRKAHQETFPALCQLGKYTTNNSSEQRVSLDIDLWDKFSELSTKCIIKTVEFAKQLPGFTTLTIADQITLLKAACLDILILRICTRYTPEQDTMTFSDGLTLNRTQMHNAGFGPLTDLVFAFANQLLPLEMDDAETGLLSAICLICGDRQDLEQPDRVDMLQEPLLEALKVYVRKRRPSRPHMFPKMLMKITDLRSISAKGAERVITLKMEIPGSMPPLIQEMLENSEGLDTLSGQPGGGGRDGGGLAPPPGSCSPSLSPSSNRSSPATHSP
Procedure: GST-RAR (143–462), GST-ER(251–595) and GST-CBP(2058–2170) were generated as described (Kamei et al., supra, 1996). 25 ul of GST SEPHAROSE beads containing 10 ug of the GST recombinant proteins were incubated in the presence or absence of the appropriate ligand for 30 min at room temperature, followed by the addition of 1 mg of cell extract and incubated for an additional 1 hr at 4° C. The complexes were then centrifuged, washed three times in NET-N buffer, separated by SDS-PAGE and western blotted with the appropriate antibodies (1 ug/ml). For co-immunoprecipitation assays, 1 mg of cell extract was incubated in the presence of 2 ug of p/CIP or NCoA antibody for 2 hr at 4° C. The immune complexes were precipitated with protein A SEPHAROSE (50% w/v). Protein complexes were separated by SDS-PAGE (Laemmle, Nature 227:680–685 (1970), which is incorporated herein by reference) and western blotted using 1 ug/ml of an anti-CBP/P300 monoclonal antibody (UBI). For in vitro competition assays, the indicated peptides were incubated with in vitro translated NCoA-1 prior to GST interaction with RAR.

[1] = system: RAR-dependent transcription; test: Single cell microinjection assay, retinoic acid-dependent RARE/LacZ reporter; format: cell-based, rat; conditions: for effect on retinoic acid-dependent gene activation by RAR: microinjection into Rat-1 cells
Procedure: (§1) Insulin-responsive Rat-1 fibroblasts were seeded on acid washed glass coverslips at subconfluent density and grown in MNE/F12 medium supplemented with 10% fetal bovine serum, gentamicin and methotrexate. Prior to the injection, the cells were rendered quiescent by incubation in serum-free medium for 24–36 hr. Plasmids were injected into the nuclei of cells at a final concentration of […]. Peptides were injected at a concentration of 200 mM. Either preimmune IgG of the appropriate species or antibodies directed against p/CIP, NCoA-1 or NCoA-2 were co-injected and allowed the unambiguous identification of the injected cells.
(§2) Microinjections were carried out using an Eppendorf semiautomated microinjection system mounted on an inverted Zeiss microscope. Approximately 1 hr after injection, the cells were stimulated, where indicated, with the appropriate ligand. In the case of rescue experiments, the cells were stimulated with ligand 6 hr after injection, to allow protein expression. After overnight incubation, the cells were fixed, then stained to detect injected IgG and β-galactosidase expression (Rose et al., J. Cell. Biol. 119:1405–1411 (1992), which is incorporated herein by reference; Kamei et al., supra, 1996). Injected cells were identified by staining with tetramethylrhodamine-conjugated donkey anti-rabbit IgG.

[2] = system: STAT-dependent (interferon γ-dependent) transcription; test: Single cell microinjection assay, interferon γ-dependent GAS/LacZ reporter; format: cell-based, rat; conditions: for effect on interferon γ-dependent (STAT) gene activation: microinjection into Rat-1 cells, GAS/LacZ reporter
Procedure: as §1, §2

[3] = target: T2, estrogen receptor ligand binding domain (yeast two-hybrid bait, liganded) (UniProt P03372 251-595); test: yeast two-hybrid
T2 construct: Tested with estradiol (10^-6 M); also called liganded estrogen receptor (LBD); ER
T2 sequence (looked up): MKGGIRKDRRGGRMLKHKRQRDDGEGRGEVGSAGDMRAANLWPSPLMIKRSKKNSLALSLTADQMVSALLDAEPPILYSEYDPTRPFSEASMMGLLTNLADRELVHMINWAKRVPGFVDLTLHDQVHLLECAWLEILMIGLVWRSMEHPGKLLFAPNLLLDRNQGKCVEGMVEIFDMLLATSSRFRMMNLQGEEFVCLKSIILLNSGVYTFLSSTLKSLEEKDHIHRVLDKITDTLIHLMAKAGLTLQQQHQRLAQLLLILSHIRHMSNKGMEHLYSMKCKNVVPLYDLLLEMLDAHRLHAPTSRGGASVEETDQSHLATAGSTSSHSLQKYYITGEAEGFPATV
Text: EGY 48 cells were transformed with the lac Z reporter plasmid pSH 18–34 with the appropriate bait and prey vectors and plated out on -Ura-His-Trp medium containing 2% galactose.

[4] = system: SP-1 or CMV dependent transcription; test: Single cell microinjection assay, control promoters lacking nuclear receptor response elements; format: cell-based; conditions: microinjection into Rat-1 cells
Procedure: as §1, §2

[5] = system: TPA-dependent transcriptional activation; test: Single cell microinjection assay, TPA-dependent reporter; format: cell-based; conditions: microinjection into Rat-1 cells
Procedure: as §1, §2

[6] = simultaneous retinoic acid and interferon γ

Molecule: LCD 1: peptide corresponding to LCD 1 of NCoA-1; NCoA-1 LCD1 (aa 631–647) (SQTSHKLVQLLTTTAEQ; UniProt P70365 631-647, looked up, fragment)
- inhibition of interaction between liganded RAR and NCoA-1 in vitro (liganded RAR and NCoA-1): less effective

Molecule: LCD4: 19-mer peptide corresponding to NCoA-1 LCD4 (aa 907–926)
- effect on retinoic acid-dependent gene activation by RAR [1]: can block
- effect on retinoic acid-dependent gene activation by RAR ([1]; listed as NCoA-1 LCD4): inhibits
- effect on interferon γ-dependent (STAT) gene activation [2]: does not impair

Molecule: CBP N′-P1: synthetic peptide of the N-terminal 22 amino acids of CBP; CBP N′-P1 (aa 1–19) (MAENLLDGPPNPKRAKLSS)
- effect on retinoic acid-dependent gene activation by RAR [1]: without effect
- effect on interferon γ inhibition of RAR-dependent transcription [1, 6]: relieved inhibition; also recorded: fully abolished
- effect on interferon γ-dependent (STAT) gene activation [2]: markedly inhibited
- effect on retinoic acid dependent inhibition of the GAS/LacZ reporter [2, 6]: had no effect

B1: NCoA-1 (aa 635-760) with LCD2 mutation (amino acids 695 to 698, HRLL->AAAA), yeast two-hybrid prey (other, UniProt P70365 635-760, looked up)
chain: HKLVQLLTTTAEQQLRHADIDTSCKDVLSCTGTSSSASSNPSGGTCPSSHSSLTERHKILAAAAQEGSPSDITTLSVEPEKKDSVPASTAVSVSGQSQGSASIKLELDAAKKKESKDHQLLRYLLD
notes: also called Mutations of the LCD2 motif (RLHRLL->RLAAAA); not shown: B42 fusion partner of prey vector pJG 4-5
- binding result [3]: no binding

B2: p/CIP (aa 947–1084): 137 amino acid region of p/CIP (aa 947–1084) containing the core CBP interaction domain (protein, UniProt O09000 947-1084, looked up, fragment)
chain: VPTLPLRSNRLPGARPSLQQQQQQQQQQQQQQQQQQQQQQQMLQMRTGEIPMGMGVNPYSPAVQSNQPGSWPEGMLSMEQGPHGSQNRPLLRNSLDDLLGPPSNAEGQSDERALLDQLHTFLSNTDATGLEEIDRALG
- effect on SP-1 / CMV control promoters (non-CBP-dependent) [4]: did not block
- effect on TPA-dependent transcriptional activation [5]: blocked
- effect on retinoic acid-dependent gene activation by RAR [1]: completely inhibited
- effect on retinoic acid-dependent gene activation by RAR ([1]; listed as amino acids 947 to 1084 of p/CIP): inhibits
- effect on interferon γ-dependent (STAT) gene activation [2]: blocked
